For assay [1], the target named is T1, Fcγ receptor I (CD64) on U-937 cells (UniProt P12314 16-374, limits assumed).
T1 construct: whole, on cells; also called FcγRI
The assay can be described thus: binding to U-937 cells.

Assay [2] concerns the target T2, human membrane c-Kit on cells (human, UniProt P10721 26-976). Kind of assay: cell-based or functional assay.
Assay [3] concerns the target T2, human membrane c-Kit on cells. Kind of assay: cell-based or functional assay. The source holds these as a separate data set.
Assay [4] concerns the target T3, recombinant c-Kit receptor-Fc (UniProt P10721 26-520, limits assumed).
T3 construct: not shown: Fc part
Kind of assay: KinExA equilibrium binding; KinExA equilibrium binding; recombinant c-Kit receptor-Fc. On the technique in general: A kinetic exclusion assay measures how much of one partner remains free in solution.

Assay [5] deals with c-Kit (form in the assay not stated) (UniProt P10721 26-520, limits assumed). Kind of assay: Biacore assay, blocking of SCF binding to c-Kit; Biacore; blocking of SCF binding; c-Kit form not stated. For orientation: In SPR one partner is held on a chip, and binding of the other changes the refractive index at the surface.
Chain of c-Kit (form in the assay not stated) (P10721 26-520 limits assumed): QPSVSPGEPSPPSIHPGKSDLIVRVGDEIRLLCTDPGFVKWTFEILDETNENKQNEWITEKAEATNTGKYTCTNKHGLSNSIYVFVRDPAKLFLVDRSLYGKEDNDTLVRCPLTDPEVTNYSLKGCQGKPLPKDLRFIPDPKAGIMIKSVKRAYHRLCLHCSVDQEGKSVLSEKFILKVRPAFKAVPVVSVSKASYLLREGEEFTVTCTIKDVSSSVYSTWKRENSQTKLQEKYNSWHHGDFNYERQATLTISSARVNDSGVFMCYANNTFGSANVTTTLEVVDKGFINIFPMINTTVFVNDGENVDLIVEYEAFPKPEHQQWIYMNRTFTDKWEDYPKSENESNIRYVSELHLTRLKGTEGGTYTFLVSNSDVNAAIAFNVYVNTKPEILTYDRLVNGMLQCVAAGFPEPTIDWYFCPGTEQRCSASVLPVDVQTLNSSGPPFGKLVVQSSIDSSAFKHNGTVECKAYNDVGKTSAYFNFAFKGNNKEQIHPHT

The Kd is the equilibrium constant for the complex coming apart. As a reminder, the Ki is a measure of affinity in units of concentration, obtained from inhibition or displacement. Read a high Ki as weaker binding.

T2 sequence (P10721 26-976): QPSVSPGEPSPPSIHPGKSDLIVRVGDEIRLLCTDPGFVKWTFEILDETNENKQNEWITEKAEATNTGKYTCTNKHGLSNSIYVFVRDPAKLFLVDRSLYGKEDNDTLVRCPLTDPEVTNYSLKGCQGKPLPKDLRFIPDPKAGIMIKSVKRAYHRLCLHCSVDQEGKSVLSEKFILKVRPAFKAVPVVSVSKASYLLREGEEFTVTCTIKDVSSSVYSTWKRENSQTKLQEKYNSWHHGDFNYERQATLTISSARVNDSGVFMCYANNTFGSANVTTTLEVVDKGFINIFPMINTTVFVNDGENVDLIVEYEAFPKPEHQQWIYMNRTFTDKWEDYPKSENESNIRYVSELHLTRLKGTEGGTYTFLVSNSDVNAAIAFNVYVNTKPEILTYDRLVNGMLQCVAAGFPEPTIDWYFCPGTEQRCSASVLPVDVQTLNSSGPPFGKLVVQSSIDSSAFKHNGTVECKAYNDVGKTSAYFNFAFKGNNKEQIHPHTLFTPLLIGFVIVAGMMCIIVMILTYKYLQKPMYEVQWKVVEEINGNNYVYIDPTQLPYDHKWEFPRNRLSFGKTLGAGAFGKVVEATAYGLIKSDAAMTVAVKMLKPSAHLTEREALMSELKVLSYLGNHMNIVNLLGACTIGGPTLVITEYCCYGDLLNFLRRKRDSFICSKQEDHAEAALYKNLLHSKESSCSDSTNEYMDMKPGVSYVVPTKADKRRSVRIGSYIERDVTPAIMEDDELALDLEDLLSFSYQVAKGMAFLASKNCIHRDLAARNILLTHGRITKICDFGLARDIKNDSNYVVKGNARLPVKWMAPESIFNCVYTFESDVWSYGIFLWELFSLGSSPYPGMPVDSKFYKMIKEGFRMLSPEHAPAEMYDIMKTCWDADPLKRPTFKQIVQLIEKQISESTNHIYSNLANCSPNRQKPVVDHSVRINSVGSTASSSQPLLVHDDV
T1 sequence (P12314 16-374 limits assumed): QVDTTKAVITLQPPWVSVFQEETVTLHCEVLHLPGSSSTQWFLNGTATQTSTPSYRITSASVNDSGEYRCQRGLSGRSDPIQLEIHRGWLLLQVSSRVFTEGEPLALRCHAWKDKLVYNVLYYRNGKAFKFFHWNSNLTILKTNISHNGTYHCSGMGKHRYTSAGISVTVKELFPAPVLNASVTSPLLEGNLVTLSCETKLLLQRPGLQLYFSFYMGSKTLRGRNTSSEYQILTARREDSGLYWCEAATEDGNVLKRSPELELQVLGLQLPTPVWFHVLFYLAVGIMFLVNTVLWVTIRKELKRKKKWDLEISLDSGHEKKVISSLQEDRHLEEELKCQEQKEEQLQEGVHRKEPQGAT
T3 sequence (P10721 26-520 limits assumed): as the sequence (P10721 26-520 limits assumed) above

B1: Humanized SR-1 aglycosylated IgG1 (hSR-1 aIgG1) (antibody)
heavy: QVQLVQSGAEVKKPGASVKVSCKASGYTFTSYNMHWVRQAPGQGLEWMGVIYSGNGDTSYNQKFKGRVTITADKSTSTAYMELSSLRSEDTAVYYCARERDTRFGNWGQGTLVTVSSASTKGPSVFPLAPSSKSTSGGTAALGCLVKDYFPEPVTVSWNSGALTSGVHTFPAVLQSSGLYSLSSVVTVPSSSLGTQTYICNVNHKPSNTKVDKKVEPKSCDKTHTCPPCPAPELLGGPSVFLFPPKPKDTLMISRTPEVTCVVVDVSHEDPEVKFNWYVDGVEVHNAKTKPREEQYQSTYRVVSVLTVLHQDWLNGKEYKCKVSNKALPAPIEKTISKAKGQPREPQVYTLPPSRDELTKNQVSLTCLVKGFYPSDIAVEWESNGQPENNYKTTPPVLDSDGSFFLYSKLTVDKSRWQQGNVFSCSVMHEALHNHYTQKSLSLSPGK
light: DIVMTQSPDSLAVSLGERATINCRASESVDIYGNSFMHWYQQKPGQPPKLLIYLASNLESGVPDRFSGSGSGTDFTLTISSLQAEDVAVYYCQQNNEDPYTFGGGTKVEIKRTVAAPSVFIFPPSDEQLKSGTASVVCLLNNFYPREAKVQWKVDNALQSGNSQESVTEQDSKDSTYSLSSTLTLSKADYEKHKVYACEVTHQGLSSPVTKSFNRGEC
notes: also called Humanized SR-1 aIgG1; Humanized SR-1 aglyco-IgG1
For B1, the binding result in assay [1] is reported as “no binding”. Further, the “IC50, SCF-dependent survival/proliferation of UT-7 cells” value in assay [2] amounted to 0.035 nM. The “UT-7 IC50” value in assay [3] came out at 4.5 ng/mL. In addition, the Kd in assay [4] came out at 0.001 nM. The molecule further yielded a Ki in assay [5] of 0.07 nM.

B2: murine anti-human c-Kit monoclonal antibody SR-1 (antibody, mouse IgG2a, kappa, V domains shown)
VH: QVQLQQPGAELVKPGASVKMSCKASGYTFTSYNMHWVKQTPGQGLEWIGVIYSGNGDTSYNQKFKGKATLTADKSSSTAYMQINSLTSEDSAVYYCARERDTRFGNWGQGTLVTVSA
VL: NIVLTQSPASLAVSLGLRATISCRASESVDIYGNSFMHWYQQKPGQPPKLLIYLASNLESGVPARFSGSGSRTDFTLTIDPVEADDAATYYCQQNNEDPYTFGGGTKLEIKR
On to B2, for which the “UT-7 IC50” value in assay [3] worked out at 3.6 ng/mL.
